Assay [1] addresses N-terminal 6xHis-tagged HsCPAP^897−1338 (human) (UniProt Q9HC77). As to the kind of experiment: SEC + other: negative-stain electron microscopy (single particle, 3D map); SEC (Superdex 200 10/300) peak fraction at an apparent MW of ~208 kDa, buffer H-300 (300 mM NaCl), 4°C; barrel-like particles, 23 Å map; putative tetramer (dimer of dimers).
For assay [2] the target is unchanged. The assay can be described thus: SEC + other: negative-stain electron microscopy (single particle, 3D map); SEC (Superdex 200 10/300) fraction at an apparent MW of ~108 kDa, buffer H-300 (300 mM NaCl), 4°C; toroidal particles, 20 Å map from 4,587 particles; monomers to putative dimer.

In the case of “N-terminal 6xHis-tagged HsCPAP^897−1338 (from UniProt Q9HC77 897-1338) (domain or fragment)”, the stoichiometry N in assay [1] was determined as 4; in assay [2] it was 2.

For the origin of these results see paper PMC5366329.
